# According to PMC12409352:
# Biological target: BrxU, untagged (GmrSD-family Type IV restriction enzyme from Escherichia fergusonii) (Escherichia fergusonii)
substance,measurement,value
"IPI* (mature, active form of phage T4 internal protein I, product of ip1) (natural protein)",in vitro digestion of glc-5mdC pUC19 DNA by untagged BrxU (1 mM ATP) after incubation with a titration of IPI*; excess of IPI* sufficient for robust inhibition,30 fold excess
